Source: US20250352589A1, “OXYTOCIN-MIMETIC COMPOSITIONS AND USES THEREOF” (INSTITUT NATIONAL DE LA SANTÉ ET DE LA RECHERCHE MÉDICALE, priority 2021, published 2025)

T1: human OT-R (Homo sapiens, UniProt P30559)
T1 construct: expressed in transfected cells; host or cells: HEK cells
T1 sequence (P30559 1-389): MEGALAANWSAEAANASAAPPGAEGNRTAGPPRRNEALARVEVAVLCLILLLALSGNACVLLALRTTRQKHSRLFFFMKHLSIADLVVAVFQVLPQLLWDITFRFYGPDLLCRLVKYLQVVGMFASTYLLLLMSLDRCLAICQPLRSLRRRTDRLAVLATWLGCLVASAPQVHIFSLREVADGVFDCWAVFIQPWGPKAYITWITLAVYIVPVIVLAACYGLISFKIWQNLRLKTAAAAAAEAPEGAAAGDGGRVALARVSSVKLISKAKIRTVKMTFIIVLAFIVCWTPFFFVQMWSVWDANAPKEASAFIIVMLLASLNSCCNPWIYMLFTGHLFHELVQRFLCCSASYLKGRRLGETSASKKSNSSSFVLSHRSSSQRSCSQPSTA

B1: GMP synthase (protein, listed as Lactobacillus plantarum)
chain: MAKTDTASFDSILVLDFGSQYNQLITRRIRDFGVYSELLPNTITAEEIKARHPKGIIFSGGPNSVYDDGAFRVDPEIFKLGLPILGICYGMQLMTYTLAGGKVESADNREYGKANIDVTSDSATLFKDTPAEQSVWMSHGDLVTQAPDGFDVVATSKNCPIAAIQDVDRKLYGIQFHAEVRNTDYGNDILRHFAFDVCQAEANWSMDDFIDMQIEKIRAEVGDKKVLLGLSGGVDSSVVGVLLHKAIGTQLTSIFVDHGLLRKGEADQVMASLEGKFGLNIIKVDAKDRFLSKLAGVSDPERKRKIIGNEFIQVFDEEATKLNGMEFLAQGTLYTDVIESGTSTAQTIKSHHNVGGLPEDMQFKLIEPLRTLFKDEARELGEKLGMPSDLVWRQPFPGPGLGIRVIGEITEDKLEIVRDSDFILRDEIKKAGLDREIWQYFTVLPGIKSVGVMGDGRTYDYTVGIRAVTSIDGMTADFARIPWDVLQKISVRIVNEVDHVNRIVYDVTSKPPSTIEWE
modifications: GMP synthase
notes: protein expressed by Lactobacillus plantarum
B2: Glutamine-fructose-6-phosphate aminotransferase (protein, listed as Lactobacillus plantarum)
chain: MCGIVGVTGKDSAVSILLNGLEKLEYRGYDSAGIYVNDQDGHDYLVKEKGRIDDLRKEVGEAVHGSTGIGHTRWATHGEPSVANAHPQVSADGRFYLVHNGVIENFEDLKQTYLSDVTFKSQTDTEVIVQLVDRFVTKEGLSTLAAFRKTLGLLGHSSYGFLLMDKEDPDTLYVAKNKSPLLIGVGEGFNVVCSDSLAMLDQTKDFLELHDGEIVVVKPDEIKITNQAGEPVERKPFHVDIDAAQADKGTYPFYMLKEIDEQPNVMRKLSQVYLNDAGDPIINDDLLTALKAADRLYIVAAGTSYHAGLVGAKLFESLANVPTEVHVSSEFAYNQPLLSAHPFFIFLTQSGETADSREVLLNVNDQHFPSLTITNVPNSTLSREATYTLLLHAGPEIAVASTKAYTAQIALQAILAKALGVAVDQPAATAFDVKQQLALVANGMQSLVDEKATFEKIAKSALLNTPNAFYIGRGLDYAVSLETALKLKEISYVQAEGFASGELKHGTIALIEKDTPVIGIITQKNTAGLTRSNLQEVAARGAKTVTIVTDSLAKDGDTVILPTVDERLTALLSVVPGQLLAYYTSLNKGLDVDKPRNLAKSVTVE
modifications: Glutamine-fructose-6-phosphate aminotransferase
notes: as for B1
B3: Phosphoglycerate kinase (protein, listed as Bifidobacterium dentium)
chain: MKTLKDLGDLKGKRVLVRADFNVPLDGTTITDDGRIKAALPTIKALREEGAKVILMAHLGRPKGKVVPELSLAPVATRLGELLGVEVPLASDTYGEDAQAKVAAMNDGDVVLLQNVRFNPEETSKDPEERAAYAKKIAALGEAFVSDGFGVVHRAQGSNYDVAADLPAAAGLLVEKEVKALSRATVDPERPLTVVLGGSKVSDKLGVIENLLDKADRLVIGGGMVYTFLKAKGLEVGTSLLEEDQVETVKGYIERAEKNGVELVLPTDIVVNPVFPKSDEDIAPEVVAADAIPADKMGLDIGPDSQKLFHDKIVDSKTVVWNGPMGVFEVPAFAAGTEAVAQGLVDATAAGAFTIVGGGDSASAVRNLGFPEDGFSHISTGGGASLEFLEGKELPGLKVLD
modifications: Phosphoglycerate kinase
notes: protein expressed by Bifidobacterium dentium
B4: Phosphoketolase (protein, listed as Bifidobacterium dentium)
chain: MTSPVIGTPWKKLNAPVSEEAIEGVDKYWRAANYLSIGQIYLRSNPLMKEPFTREDVKHRLVGHWGTTPGLNFLIGHINRLIADHQQNTVIIMGPGHGGPAGTAQSYLDGTYTEYFPNITKDEAGLQKFFRQFSYPGGIPSHYAPETPGSIHEGGELGYALSHAYGAVMNNPSLFVPAIVGDGEAETGPLATGWQSNKLVNPRTDGIVLPILHLNGYKIANPTILSRISDEELHEFFHGMGYEPYEFVAGFDNEDHLSIHRRFAELFETVFDEICDIKAAAQTDDMTRPFYPMIIFRTPKGWTCPKFIDGKKTEGSWRSHQVPLASARDTEAHFEVLKNWLESYKPEELFDANGAVKPEVTAFMPTGELRIGENPNANGGRIREELNLPALEDYEVKEVAEYGHGWGQLEATRRLGVYTRDIIKNNPDSFRIFGPDETASNRLQAAYDVTNKQWDAGYLSAQVDEHMAVTGQVTEQLSEHQMEGFLEAYLLTGRHGIWSSYESFVHVIDSMLNQHAKWLEATVREIPWRKPISSMNLLVSSHVWRQDHNGFSHQDPGVTSVLLNKCFNNDHVIGIYFPVDSNMLLAVAEKCYKSTDMINAIIAGKQPAATWLTLDEARAELEKGAAEWEWASTAKSNDEAQIVLASAGDVPAQEIMAAADKLDAMGIKFKVVNVVDLVKLQSTKENDEAISDADFADLFTEDKPVLFAYHSYARDVRGLIYDRPNHDNFNVHGYEEQGSTTTPYDMVRVNNIDRYELVAEALRMIDADKYADKIDELEAFRKEAFQFAVDNGYDHPDYTDWVYSGVNTNKQGAVSATAATAGDNE
modifications: phosphoketolase
notes: as for B3
B5: Prolable phosphoketolase (protein, listed as Bifidobacterium pseudolongum)
chain: MTNPVIGTPWQKLDRPVSEEAIEGMDKYWRVTNYMSIGQIYLRSNPLMKEPFTRDDVKHRLVGHWGTTPGLNFLLAHINRLIADHQQNTVFIMGPGHGGPAGTSQSYVDGTYTEYYPNITKDEAGLQKFFRQFSYPGGIPSHFAPETPGSIHEGGELGYALSHAYGAVMNNPSLFVPCIIGDGEAETGPLATGWQSNKLVNPRTDGIVLPILHLNGYKIANPTILARISDEELHDFFRGMGYHPYEFVAGFDNEDHMSIHRRFAELFETIFDEICDIKAAAQTDDMTRPFYPMLIFRTPKGWTCPKFIDGKKTEGSWRAHQVPLASARDTEEHFEVLKGWLESYKPEELFNADGSIKDDVTAFMPKGDLRIGANPNANGGVIREDLKLPELDQYEVTGVKEYGHGWGQVEAPRSLGAYCRDIIKNNPDSFRIFGPDETASNRLNATYEVTDKQWDNGYLSSLVDEHMAVTGQVTEQLSEHQCEGFLEAYLLTGRHGIWSSYESFVHVIDSMLNQHAKWLEATVREIPWRKPISSVNLLVSSHVWRQDHNGFSHQDPGVTSVLINKTFNNDHVTNIYFATDANMLLAISEKCFKSTNKINAIFAGKQPAPTWITLDEARAELEAGAAEWKWASNAENNDEVQVVLAAAGDVPTQEIMAASDALNKMGIKFKVVNVVDLLKLQSRENNDEALTDEEFTDLFTADKPVLFAYHSYAQDVRGLIYDRPNHDNFNVVGYKEQGSTTTPFDMVRVNDMDRYALQAAALKMIDADKYADKIDELNAFRQKAFQFAVDNGYDIPEFTDWVYPDVKVDETQMLSATAATAGDNE
modifications: Probable phosphoketolase
notes: protein expressed by Bifidobacterium pseudolongum subsp. globosum
B6: Enolase 1 (protein, listed as Lactobacillus gasseri)
chain: MLKSVIENVHALEIFDSRGNPTVEVFVTLSNGVVGKAEVPSGASTGENEAVELRDGGSRLGGKGVMNAVNNVNTEINDALKGLDPHDQPNIDATMIALDGTPNKGRLGANAILGVSMATACAAAKDNHQPLYRYLGGTDLEMPQTFHNVINGGEHADNGIDIQEFMITPVAKTSFRDGFEKIVNVYHTLKKVLEDMGYETGLGDEGGFAPNMKNSEEALKALHESIIKAGYKPGEDIAIACDCAASYFYNKEDGKYHLEGKVLTDEELADYYDKLLDEFPELISMEDPYDENDVEGMVKFTESHKDRIQIVLDDFICTNPKLLNKAIHEGAGNASLIKLNQIGTVTETLETIRLSRKNGYNTMISHRSGETGDTFIADFAVAVNGGQLKSGAPARSERVEKYNRLLEIEEELGKGERLAFFPDNVDLD
modifications: enolase1
notes: protein expressed by Lactobacillus gasseri

How the values were obtained:
[1] = tested on: non-transfected HEK cells; experiment: Negative control: activation of non-transfected HEK cells; format: cell-based
Experimental: The activation of OT-R by bacterial peptides was analyzed by the measurement of calcium release from HEK cells transfected with human OT-R
As a negative control, no activation of non-transfected HEK cells with OT or bacterial peptides was observed.

human OT-R = biological target: T1, human OT-R; experiment: Activation of OT-R by bacterial peptides: calcium release from HEK cells transfected with human OT-R; format: cell-based; conditions: OTR expressing HEK cells
anti-oxytocin antibodies = experiment: Proteomic analysis: 2D gel and OT immunodetection (OT IgG) of bacterial proteomes; format: binding; conditions: 2D-immunoblotting, spots identified by mass spectrometry
Experimental: In this study, 14 bacteria-extracted proteomes were analyzed: (i) from 5 Bifidobacterium species grown in anaerobe conditions, (ii) from 5 Lactobacillus species grown in anaerobe culture conditions and (iii) from 4 aerotolerant Lactobacillus species grown in aerobe conditions. Each proteome analysis was performed in triplicate and was further separated in 3 fractions i.e. soluble (S), membrane (M), and residual (R) resulting in 9 samples/proteome). Each fraction was initially screened by western blot (WB) for the presence OT-like reactivity to validate it for further 2D-SDS-PAGE analysis. […] Finally, all fractions have been analyzed using 2D gel technique and OT immunodetection. 2D gel electrophoresis allowed to improve visibility of the less abundant proteins in a complex sample. Thereby, all samples were analyzed at least once with this method to scan optimally each proteome in the search for OT mimicry. […] The specificity for OT-like staining was controlled by pre-adsorption of OT-IgG with OT peptide.
All protein spots in silver nitrate staining gels corresponding to OT-like spots in the membrane were excised and analyzed by mass spectrometry

Molecule | activation of non-transfected HEK cells [1] | specific activation of OTR (human OT-R) | immune cross-reaction with anti-oxytocin antibodies (anti-oxytocin antibodies)
CC[C@H](C)[C@@H]1NC(=O)[C@H](Cc2ccc(O)cc2)NC(=O)[C@@H](N)CSSC[C@@H](C(=O)N2CCC[C@H]2C(=O)N[C@@H](CC(C)C)C(=O)NCC(N)=O)NC(=O)[C@H](CC(N)=O)NC(=O)[C@H](CCC(N)=O)NC1=O [OT, Oxytocin] | no activation | specifically activated OTR | 
B1 |  |  | immune cross-react with anti-oxytocin antibodies
B2 |  |  | immune cross-react with anti-oxytocin antibodies
B3 |  |  | immune cross-react with anti-oxytocin antibodies
B4 |  |  | immune cross-react with anti-oxytocin antibodies
B5 |  |  | immune cross-react with anti-oxytocin antibodies
B6 |  |  | immune cross-react with anti-oxytocin antibodies
